Patent publication US20230241257A1, “BIOTIN-MODIFIED DIMER AND USE THEREOF” (THE UNIVERSITY OF TOKYO, priority 2020, published 2023)

B1: CEA-V2122 protein (scFv-type anti-CEACAM5 antibody fused to mutant streptavidin V2122 via the linker GGGGSGGGG) (scFv)
scFv: QVKLEQSGAEVVKPGASVKLSCKASGFNIKDSYMHWLRQGPGQRLEWIGWIDPENGDTEYAPKFQGKATFTTDTSANTAYLGLSSLRPEDTAVYYCNEGTPTGPYYFDYWGQGTLVTVSSGGGGSGGGGSGGGGSENVLTQSPSSMSVSVGDRVNIACSASSSVPYMHWLQQKPGKSPKLLIYLTSNLASGVPSRFSGSGSGTDYSLTISSVQPEDAATYYCQQRSSYPLTFGGGTKLEIKGGGGSGGGGAEAGITGTWSDQLGDTFIVTAGADGALTGTYENAVGGAESRYVLTGRYDSAPATDGSGTALGWTVAWKNNSKNAHSATTWSGQYVGGADAKINTQWLLTSGTTNANAWKSTLVGHDTFTKVKPSAASHHHHHH
notes: It was secreted and purified from the culture supernatant through the His tag and Protein L. The purified product is mainly a tetramer of about 150 kDa; also called Cupid-scFv antibody; CEA-Cupid
B2: CEA-V2122: scFv-type anti-CEACAM5 antibody bound to mutant streptavidin V2122 via amino acid linker GGGGSGGGG (SEQ ID NO: 3) (protein)
scFv: B1 scFv

Tests used:
[1] = target: T1, Recombinant Human CEACAM-5/CD66e Protein, CF (R & D SYSTEMS) (human, UniProt P06731 35-685); assay: SPR, Biacore T200, CEACAM5 immobilized on CM5, CEA-V2122 as analyte, single-cycle kinetics, bivalent analysis fit (KD = kd1/ka1)
T1 construct: Bought recombinant protein, immobilized on a CM5 chip by amine coupling (279 RU); also called carcinoembryonic antigen
T1 sequence (looked up): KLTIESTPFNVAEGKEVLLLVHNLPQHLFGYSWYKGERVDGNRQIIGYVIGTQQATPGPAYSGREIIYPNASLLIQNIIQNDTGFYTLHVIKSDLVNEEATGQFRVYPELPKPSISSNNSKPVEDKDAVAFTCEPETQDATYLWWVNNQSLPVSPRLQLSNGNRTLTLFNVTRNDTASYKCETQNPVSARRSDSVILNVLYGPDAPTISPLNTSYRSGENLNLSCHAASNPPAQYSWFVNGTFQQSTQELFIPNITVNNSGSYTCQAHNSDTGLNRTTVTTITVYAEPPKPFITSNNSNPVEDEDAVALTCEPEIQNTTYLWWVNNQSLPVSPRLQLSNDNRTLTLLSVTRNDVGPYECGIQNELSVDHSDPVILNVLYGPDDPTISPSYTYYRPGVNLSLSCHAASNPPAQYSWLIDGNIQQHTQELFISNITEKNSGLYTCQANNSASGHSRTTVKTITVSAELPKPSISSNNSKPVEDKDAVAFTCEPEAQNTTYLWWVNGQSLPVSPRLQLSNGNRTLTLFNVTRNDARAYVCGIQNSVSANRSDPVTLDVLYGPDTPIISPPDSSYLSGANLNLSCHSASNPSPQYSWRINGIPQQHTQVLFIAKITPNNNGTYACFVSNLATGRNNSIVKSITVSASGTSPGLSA
Description: (§1) The affinity of CEA-V2122 for the antigen CEACAM5 was evaluated using a surface plasmon resonance (SPR) measuring device, Biacore T200 (GE Healthcare Life Sciences). Specifically, Recombinant Human CEACAM-5/CD66e Protein, CF (R & D SYSTEMS) was immobilized on Sensor Chip CM5 (GE Healthcare Life Sciences) using an amine-coupling kit (GE Healthcare Life Sciences). The final amount of the ligand immobilized was 279 RU. Moreover, about the purified CEA-V2122, two-fold serial dilutions from 1E-08 M to 6.25E-10 M were prepared as analytes. Regarding interaction analysis, data were obtained by single-cycle kinetics analysis.

[2] = target: T2, Recombinant Human CEACAM-5/CD66e Protein (Homo sapiens, UniProt P06731); assay: SPR affinity of CEA-V2122 for the antigen CEACAM5 (Biacore T200); type: binding
T2 construct: purchased R & D SYSTEMS
T2 sequence (P06731 35-676): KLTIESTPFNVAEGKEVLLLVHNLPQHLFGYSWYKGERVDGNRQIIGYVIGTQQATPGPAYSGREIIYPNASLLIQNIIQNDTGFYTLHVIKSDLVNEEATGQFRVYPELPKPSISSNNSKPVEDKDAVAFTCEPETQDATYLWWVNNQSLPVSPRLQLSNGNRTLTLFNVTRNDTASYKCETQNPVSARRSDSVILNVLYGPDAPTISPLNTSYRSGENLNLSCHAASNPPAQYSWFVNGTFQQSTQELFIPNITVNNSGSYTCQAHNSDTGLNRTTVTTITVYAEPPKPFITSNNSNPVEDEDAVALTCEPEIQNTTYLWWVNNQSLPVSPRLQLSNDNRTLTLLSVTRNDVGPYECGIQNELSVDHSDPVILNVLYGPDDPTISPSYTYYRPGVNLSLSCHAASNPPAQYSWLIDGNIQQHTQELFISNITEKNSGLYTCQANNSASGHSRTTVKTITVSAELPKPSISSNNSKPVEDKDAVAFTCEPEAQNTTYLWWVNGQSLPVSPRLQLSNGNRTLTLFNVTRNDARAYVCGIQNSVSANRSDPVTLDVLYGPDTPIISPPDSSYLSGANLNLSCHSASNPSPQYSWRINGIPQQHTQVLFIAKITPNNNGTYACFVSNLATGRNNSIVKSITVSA
Description: as §1, with “analysis. Using Biacore T200 Evaluation Software, version 2.0, the obtained data were subjected to curve fitting in a bivalent analysis mode, and the following values were obtained: ka1=3.208E+5, and kd1=3.461E−7.” for “analysis.”

[3] = single-cycle kinetics, bivalent analysis mode

| Molecule | Kd [1] [pM] | KD=kd1/ka1 ([2]; bivalent analysis) | ka1 [2, 3] | kd1 [2, 3] |
| --- | --- | --- | --- | --- |
| B1 | 1.08 |  |  |  |
| B2 |  | 1.078E−12 | 3.208E+5 | 3.461E−7 |
